From US20150203575A1 (Genentech, published 2015)
Read-outs that look alike come from different tables or passages of the source.

Key:
[1] = target: T1, LRRTM4 expressed on cells (human, UniProt Q86VH4 31-590); experiment: flow cytometry, transfected 293T cells
T1 construct: Clone of the Origene human cDNA library; also called Leucine rich repeat transmembrane neuronal 4

[2] = target: T2, MAG expressed on cells (human, UniProt P20916 20-626); experiment: flow cytometry, transfected 293T cells
T2 construct: Clone of the Origene human cDNA library; also called Myelin associated glycoprotein; SIGLEC4A
T2 sequence: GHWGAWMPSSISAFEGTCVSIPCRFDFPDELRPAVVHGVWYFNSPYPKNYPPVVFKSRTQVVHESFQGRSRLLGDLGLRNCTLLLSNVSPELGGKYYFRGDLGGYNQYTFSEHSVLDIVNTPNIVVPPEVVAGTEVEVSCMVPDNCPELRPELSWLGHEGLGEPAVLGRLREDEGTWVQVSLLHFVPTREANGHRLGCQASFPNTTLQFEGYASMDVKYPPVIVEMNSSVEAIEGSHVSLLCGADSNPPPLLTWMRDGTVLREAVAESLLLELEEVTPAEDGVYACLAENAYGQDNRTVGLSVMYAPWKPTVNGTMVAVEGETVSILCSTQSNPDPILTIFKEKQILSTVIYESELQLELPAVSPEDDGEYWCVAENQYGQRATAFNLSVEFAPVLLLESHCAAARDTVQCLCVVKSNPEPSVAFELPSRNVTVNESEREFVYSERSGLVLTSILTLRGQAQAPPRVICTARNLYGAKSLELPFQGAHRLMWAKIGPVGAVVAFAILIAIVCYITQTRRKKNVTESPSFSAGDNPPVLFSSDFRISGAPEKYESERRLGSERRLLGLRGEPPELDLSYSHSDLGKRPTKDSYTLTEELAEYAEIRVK

[3] = target: T3, CLEC4G expressed on cells (human, UniProt Q6UXB4 1-293); experiment: flow cytometry, transfected 293T cells, 50 µg/ml
T3 construct: Clone of the Origene human cDNA library; also called C type lectin superfamily 4 member G
T3 sequence: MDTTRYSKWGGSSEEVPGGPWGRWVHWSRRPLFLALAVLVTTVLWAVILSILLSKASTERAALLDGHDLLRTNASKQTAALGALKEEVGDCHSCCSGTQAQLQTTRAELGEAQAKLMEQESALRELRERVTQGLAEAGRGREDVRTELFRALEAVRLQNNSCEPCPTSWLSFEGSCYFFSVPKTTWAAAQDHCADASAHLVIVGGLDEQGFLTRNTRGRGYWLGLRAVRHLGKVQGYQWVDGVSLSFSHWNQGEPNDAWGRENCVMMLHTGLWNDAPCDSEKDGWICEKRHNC

[4] = target: T4, FceRII expressed on cells (human, UniProt P06734 1-321); experiment: flow cytometry, transfected 293T cells, 50 µg/ml
T4 construct: Clone of the Origene human cDNA library; also called FcRII
T4 sequence: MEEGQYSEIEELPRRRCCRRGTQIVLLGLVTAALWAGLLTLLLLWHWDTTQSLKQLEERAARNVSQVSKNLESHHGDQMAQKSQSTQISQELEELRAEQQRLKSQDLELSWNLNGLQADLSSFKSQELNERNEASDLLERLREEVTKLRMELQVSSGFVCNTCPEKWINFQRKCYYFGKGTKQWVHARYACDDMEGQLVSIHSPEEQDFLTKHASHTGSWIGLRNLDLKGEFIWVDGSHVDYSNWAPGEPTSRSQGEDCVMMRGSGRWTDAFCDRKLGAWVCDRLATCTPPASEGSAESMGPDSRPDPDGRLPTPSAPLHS

[5] = target: T5, PSS8 expressed on cells (human, UniProt Q16651 30-343); experiment: flow cytometry, transfected 293T cells
T5 construct: Clone of the Origene human cDNA library; also called Protease serine 8; prostasin
T5 sequence (Q16651 30-343 limits assumed): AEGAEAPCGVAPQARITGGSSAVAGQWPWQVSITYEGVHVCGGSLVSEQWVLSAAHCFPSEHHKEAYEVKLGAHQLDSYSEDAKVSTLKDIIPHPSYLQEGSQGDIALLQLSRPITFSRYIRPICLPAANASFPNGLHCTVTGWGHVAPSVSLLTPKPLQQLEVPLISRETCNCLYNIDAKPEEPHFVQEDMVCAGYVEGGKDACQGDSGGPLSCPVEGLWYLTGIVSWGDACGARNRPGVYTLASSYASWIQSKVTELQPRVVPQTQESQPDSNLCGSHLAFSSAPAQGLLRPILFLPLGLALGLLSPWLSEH

[6] = target: T6, IL-2Ra expressed on cells (human, UniProt P01589 22-272); experiment: flow cytometry, transfected 293T cells
T6 construct: Clone of the Origene human cDNA library; also called Interleukin 2 receptor alpha
T6 sequence: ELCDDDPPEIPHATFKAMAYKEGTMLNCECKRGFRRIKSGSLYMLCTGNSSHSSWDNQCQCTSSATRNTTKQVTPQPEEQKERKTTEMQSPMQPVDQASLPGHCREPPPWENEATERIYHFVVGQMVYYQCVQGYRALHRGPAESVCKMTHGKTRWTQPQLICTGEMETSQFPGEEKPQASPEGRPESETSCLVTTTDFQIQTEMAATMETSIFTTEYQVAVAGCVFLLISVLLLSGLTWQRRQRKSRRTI

[7] = target: T2, MAG expressed on cells; experiment: flow cytometry, transfected 293T cells, 50 µg/ml
[8] = target: T4, FceRII expressed on cells; experiment: flow cytometry, transfected 293T cells, 50 µg/ml; remark: listed apart in the source
[9] = target: T7, human COLEC12 expressed on cells (human, UniProt Q5KU26 1-742); experiment: flow cytometry, transfected 293T cells
T7 construct: also called hCOLEC12; C-terminal his tagged hCOLEC12
T7 sequence (Q5KU26 whole entry S522P/G606S): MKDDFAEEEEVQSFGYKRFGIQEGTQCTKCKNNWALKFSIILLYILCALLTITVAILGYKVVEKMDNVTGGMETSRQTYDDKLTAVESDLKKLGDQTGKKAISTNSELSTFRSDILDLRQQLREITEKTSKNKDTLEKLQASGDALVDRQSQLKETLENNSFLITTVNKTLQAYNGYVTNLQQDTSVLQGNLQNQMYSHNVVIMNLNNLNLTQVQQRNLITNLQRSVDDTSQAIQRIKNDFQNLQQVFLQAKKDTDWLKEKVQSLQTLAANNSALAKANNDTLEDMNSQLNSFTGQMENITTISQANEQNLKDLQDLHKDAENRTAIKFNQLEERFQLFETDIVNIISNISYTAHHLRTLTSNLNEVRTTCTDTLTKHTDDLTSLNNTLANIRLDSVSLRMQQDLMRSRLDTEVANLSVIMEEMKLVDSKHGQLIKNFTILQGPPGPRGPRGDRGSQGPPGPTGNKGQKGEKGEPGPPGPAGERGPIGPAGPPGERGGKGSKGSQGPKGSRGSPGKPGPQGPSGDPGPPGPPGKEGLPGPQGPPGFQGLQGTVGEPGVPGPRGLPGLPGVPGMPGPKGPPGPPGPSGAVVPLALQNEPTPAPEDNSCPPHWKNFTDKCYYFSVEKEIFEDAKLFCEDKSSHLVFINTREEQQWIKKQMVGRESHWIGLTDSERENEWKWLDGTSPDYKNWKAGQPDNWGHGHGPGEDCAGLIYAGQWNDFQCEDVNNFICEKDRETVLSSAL

[10] = target: T8, BR3 expressed on cells (human, UniProt Q96RJ3 1-184); experiment: flow cytometry, transfected 293T cells, 50 µg/ml
T8 construct: Clone of the Origene human cDNA library
T8 sequence: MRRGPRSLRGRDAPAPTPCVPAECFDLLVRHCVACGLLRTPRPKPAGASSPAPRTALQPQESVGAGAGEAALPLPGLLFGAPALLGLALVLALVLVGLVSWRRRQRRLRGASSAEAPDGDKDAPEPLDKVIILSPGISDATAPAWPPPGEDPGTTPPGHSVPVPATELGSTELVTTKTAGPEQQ

[11] = target: T2, MAG expressed on cells; experiment: flow cytometry, transfected 293T cells, 50 µg/ml; remark: listed apart in the source
[12] = target: T5, PSS8 expressed on cells; experiment: flow cytometry, transfected 293T cells, 2 µg/ml
[13] = target: T8, BR3 expressed on cells; experiment: flow cytometry, transfected 293T cells, 2 µg/ml
[14] = target: T3, CLEC4G expressed on cells; experiment: flow cytometry, transfected 293T cells
[15] = target: T9, human NPDC1 expressed on cells (human, UniProt Q9NQX5 35-325); experiment: flow cytometry, transfected 293T cells
T9 construct: also called hNPDC1; hNPCD1
T9 sequence: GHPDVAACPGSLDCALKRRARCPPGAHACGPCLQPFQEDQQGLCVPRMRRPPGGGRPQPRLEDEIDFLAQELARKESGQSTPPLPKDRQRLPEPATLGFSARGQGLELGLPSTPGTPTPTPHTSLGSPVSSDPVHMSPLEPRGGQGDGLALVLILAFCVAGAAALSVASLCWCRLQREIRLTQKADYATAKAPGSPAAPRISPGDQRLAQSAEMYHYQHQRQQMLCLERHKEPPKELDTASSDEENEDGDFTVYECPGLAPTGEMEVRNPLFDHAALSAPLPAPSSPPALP

[16] = target: T10, mouse CD99 expressed on 293T cells (mouse, UniProt Q8VCN6 29-175, sialylated O-glycans at Thr-45 and Thr-50 (cited as relevant for PILRα recognition)); experiment: flow cytometry, transfected 293T cells
T10 construct: whole, on cells; also called mCD99; mCD99 transfectants
T10 sequence (looked up): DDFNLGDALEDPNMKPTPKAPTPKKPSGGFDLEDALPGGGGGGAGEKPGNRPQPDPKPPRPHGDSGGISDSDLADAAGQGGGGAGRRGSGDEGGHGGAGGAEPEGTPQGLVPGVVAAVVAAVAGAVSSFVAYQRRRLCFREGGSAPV

[17] = target: T1, LRRTM4 expressed on cells; experiment: flow cytometry, transfected 293T cells; remark: listed apart in the source
[18] = target: T5, PSS8 expressed on cells; experiment: flow cytometry, transfected 293T cells; remark: listed apart in the source
[19] = target: T8, BR3 expressed on cells; experiment: flow cytometry, transfected 293T cells
[20] = target: T6, IL-2Ra expressed on cells; experiment: flow cytometry, transfected 293T cells; remark: listed apart in the source
[21] = target: T11, mCD99-Fc (mouse, UniProt Q8VCN6 29-137, limits assumed, three O-glycans NeuAc1-2Hex1HexNAc1); experiment: SPR, hPILRα R126A-Fc immobilized, response difference
T11 construct: also called mouse CD99-Fc; mCD99 (SPR analyte); not shown: Fc
T11 sequence (looked up): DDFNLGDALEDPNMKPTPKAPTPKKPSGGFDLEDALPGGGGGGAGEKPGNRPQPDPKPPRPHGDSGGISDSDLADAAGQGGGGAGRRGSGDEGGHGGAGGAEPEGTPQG

[22] = target: T12, hCOLEC12-his (human, UniProt Q5KU26 59-742, sialylated O-glycans and N-glycans); experiment: as above
T12 construct: Whole entry named; also called human COLEC12-his; hCOLEC12 (SPR); not shown: his tag
T12 sequence (Q5KU26 59-742 S522P/G606S limits assumed): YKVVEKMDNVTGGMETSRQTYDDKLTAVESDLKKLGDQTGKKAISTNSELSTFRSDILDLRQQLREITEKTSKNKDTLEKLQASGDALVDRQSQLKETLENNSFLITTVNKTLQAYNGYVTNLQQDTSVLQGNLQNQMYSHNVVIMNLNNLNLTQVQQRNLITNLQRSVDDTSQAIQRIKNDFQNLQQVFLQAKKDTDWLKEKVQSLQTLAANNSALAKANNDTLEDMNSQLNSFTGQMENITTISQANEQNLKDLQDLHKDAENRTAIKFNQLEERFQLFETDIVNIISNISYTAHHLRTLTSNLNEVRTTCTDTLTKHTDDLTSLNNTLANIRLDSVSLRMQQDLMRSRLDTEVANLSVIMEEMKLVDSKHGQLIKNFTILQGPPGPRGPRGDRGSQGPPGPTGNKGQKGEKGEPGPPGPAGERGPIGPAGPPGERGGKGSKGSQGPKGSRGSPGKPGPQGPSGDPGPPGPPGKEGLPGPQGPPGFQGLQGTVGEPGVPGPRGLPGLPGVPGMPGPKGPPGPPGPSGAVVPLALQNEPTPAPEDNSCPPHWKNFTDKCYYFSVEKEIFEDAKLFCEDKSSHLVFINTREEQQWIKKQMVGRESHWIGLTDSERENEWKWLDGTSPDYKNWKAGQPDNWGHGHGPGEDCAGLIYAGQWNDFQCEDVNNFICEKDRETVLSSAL

[23] = target: T13, HSV1 glycoprotein B expressed on 293T cells (herpes simplex virus type 1, UniProt P10211 31-904); experiment: flow cytometry, transfected 293T cells, ligand-expressing cells gated
T13 construct: whole, on cells; also called HSV-1 gB; HSV1 gB

[24] = target: T7, human COLEC12 expressed on cells; experiment: as above
[25] = target: T1, LRRTM4 expressed on cells; experiment: flow cytometry, transfected 293T cells, 2 µg/ml
[26] = target: T2, MAG expressed on cells; experiment: flow cytometry, transfected 293T cells, 2 µg/ml

T1 sequence (Q86VH4 31-590 limits assumed): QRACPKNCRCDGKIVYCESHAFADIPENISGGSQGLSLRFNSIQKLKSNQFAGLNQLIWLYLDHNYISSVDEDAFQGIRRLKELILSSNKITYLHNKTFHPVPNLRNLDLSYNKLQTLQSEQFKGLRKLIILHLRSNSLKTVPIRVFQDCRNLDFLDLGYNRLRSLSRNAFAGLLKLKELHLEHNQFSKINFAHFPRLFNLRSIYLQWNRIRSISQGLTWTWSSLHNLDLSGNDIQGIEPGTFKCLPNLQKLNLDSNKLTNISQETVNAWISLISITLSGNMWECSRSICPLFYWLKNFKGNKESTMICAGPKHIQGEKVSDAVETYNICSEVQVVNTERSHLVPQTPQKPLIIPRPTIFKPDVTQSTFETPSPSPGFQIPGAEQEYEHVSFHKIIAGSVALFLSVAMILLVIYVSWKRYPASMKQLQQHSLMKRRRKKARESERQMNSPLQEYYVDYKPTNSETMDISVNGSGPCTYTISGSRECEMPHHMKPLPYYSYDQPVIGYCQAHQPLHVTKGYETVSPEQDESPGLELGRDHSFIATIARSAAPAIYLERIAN

B1: mPILRβ (receptor)
chain: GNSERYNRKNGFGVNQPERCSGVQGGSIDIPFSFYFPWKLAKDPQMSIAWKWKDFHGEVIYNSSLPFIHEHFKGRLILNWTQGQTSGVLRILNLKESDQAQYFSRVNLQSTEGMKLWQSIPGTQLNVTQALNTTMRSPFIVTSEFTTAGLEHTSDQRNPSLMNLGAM
notes: also called Mouse PILR-beta
binding result [1]: no binding (tested: 50 µg/ml) | binding result [2]: no binding (tested: 50 µg/ml) | % cells in lower right quadrant [3]: 27.4% | % cells in lower right quadrant [4]: 3.98% | binding result [5]: no binding (tested: 50 µg/ml) | binding result [6]: no binding (tested: 50 µg/ml) | % cells in lower right quadrant [7]: 0.083% | % cells in lower right quadrant [8]: 3.98% | binding result [9]: no binding (tested: 50 µg/ml) | % cells in lower right quadrant [10]: 1.85%

B2: hPILRαR126A-Fc (Fc fusion)
chain: QPSGSTGSGPSYLYGVTQPKHLSASMGGSVEIPFSFYYPWELATAPDVRISWRRGHFHRQSFYSTRPPSIHKDYVNRLFLNWTEGQKSGFLRISNLQKQDQSVYFCAVELDTRSSGRQQWQSIEGTKLSITQAVTTTTQRPSSMTTTWRLSSTTTTTGLRVTQGKRRSDSWHISLETA
notes: Arg mutant of hPILRα-Fc; also called hPILRα R126-Fc; mutant hPILRα; not shown: Fc of mouse IgG2a (PILRα-mIgG2a, called PILRα-Fc)
% cells in lower right quadrant [11]: 12.5% | % cells in lower right quadrant [12]: 0.012% | % cells in lower right quadrant [13]: 0.47% | binding result [14]: no binding (tested: 50 µg/ml) | binding result [15]: no binding (tested: 50 µg/ml) | binding result [16]: no binding (tested: 50 µg/ml) | binding result [17]: no binding (tested: 50 µg/ml) | binding result [18]: no binding (tested: 50 µg/ml) | binding result [19]: no binding (tested: 50 µg/ml) | binding result [20]: no binding (tested: 50 µg/ml) | binding result [21]: no binding (tested: 1 µM) | binding result [22]: no binding (tested: 1 µM) | binding result [23]: no binding | binding result [24]: no binding | % cells in lower right quadrant [25]: 0.11% | % cells in lower right quadrant [26]: 0.17%
